Target: 2-azido-ATP (2-N3-ATP-biotin-long chain-hydrazone)
Test: photoaffinity labeling with 2-azido-ATP
Conditions: 2.0 μg of full-length AsphyA protein (∼0.16 μM), wild-type labeling at 100 μM set as 100%, read off a plot
[1] = 10 µM 2-azido-ATP, parent: est. 40
[2] = 20 µM 2-azido-ATP, parent: est. 63
[3] = 50 µM 2-azido-ATP, parent: est. 74
[4] = 100 µM 2-azido-ATP, parent: est. 100

response [1] [%] | response [2] [%] | response [3] [%] | response [4] [%] | Substance
61 | 75 | 92 | 110 | Avena sativa phytochrome A, wild type, full-length recombinant protein with C-terminal strep-tag K411E
91 | 120 | 140 | 150 | Avena sativa phytochrome A, wild type, full-length recombinant protein with C-terminal strep-tag K411R
82 | 120 | 140 | 140 | Avena sativa phytochrome A, wild type, full-length recombinant protein with C-terminal strep-tag T418V

From article PMC8362889
